The results in this text go back to paper PMC3166062, “Self-Association of an Activating Natural Killer Cell Receptor, KIR2DS1” (PLoS ONE, 2011).

This series concerns the molecule itself. Description: dynamic light scattering; KIR2DS1 3 µM in 10 mM Tris-HCl, 150 mM sodium chloride, 0.4 mM sodium azide, 25°C; Zetasizer Nano ZS; mean hydrodynamic diameter 320 nm.

B1: extracellular region of KIR2DS1 (domain or fragment)
chain: MAHEGVHRKPSLLAHPGRLVKSEETVILQCWSDVMFEHFLLHREGMFNDTLRLIGEHHDGVSKANFSISRMRQDLAGTYRCYGSVTHSPYQLSAPSDPLDIVIIGLYEKPSLSAQPGPTVLAGENVTLSCSSRSSYDMYHLSREGEAHERRLPAGTKVNGTFQANFPLGPATHGGTYRCFGSFRDSPYEWSKSSDPLLVSVTLVPRGS
notes: No cleavage of the tag is described; also called extracellular portion of KIR2DS1
In the case of B1, the binding result is given as “binds”.
